Experimental data: patent US20240117030A1
Read-outs that look alike come from different tables or passages of the source. One block for each binder: values may come before it.

Legend:
[1] = target: recombinant human IL-33 (R&D Systems 3625-IL), reduced with DTT (human) (UniProt O95760); experiment: cell-based or functional assay
[2] = target: recombinant human IL-33 (R&D Systems 3625-IL), reduced with DTT (human) (UniProt O95760); experiment: cell-based or functional assay; remark: listed apart in the source
[3] = target: T1, biotinylated human IL-33 wild-type (WT), reduced with 3 mM DTT (human) (UniProt O95760); experiment: KinExA solution affinity, fixed antigen format, global fit
T1 sequence (biotinylated (site not stated), looked up): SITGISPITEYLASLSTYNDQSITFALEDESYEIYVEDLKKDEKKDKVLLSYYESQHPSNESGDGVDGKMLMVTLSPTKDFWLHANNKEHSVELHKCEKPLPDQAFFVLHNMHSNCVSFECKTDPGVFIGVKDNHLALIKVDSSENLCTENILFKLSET

[4] = target: recombinant human IL-33 (R&D Systems 3625-IL) (human) (UniProt O95760); experiment: cell-based or functional assay
[5] = target: recombinant human IL-13 R110Q (human), P35225; experiment: cell-based or functional assay
recombinant human IL-13 R110Q (human), P35225, sequence (P35225 35-146, stated change not applied): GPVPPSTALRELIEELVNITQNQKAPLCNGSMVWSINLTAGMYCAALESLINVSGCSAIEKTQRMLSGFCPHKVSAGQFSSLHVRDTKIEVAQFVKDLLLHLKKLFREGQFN

B2: IL33-265 (antibody, from a related filing, V domains shown)
VH: EVQLVESGGNLEQPGGSLRLSCTASGFTFSRSAMNWVRRAPGKGLEWVSGISGSGGRTYYADSVKGRFTISRDNSKNTLYLQMNSLSAEDTAAYYCAKDSYTTSWYGGMDVWGHGTTVTVSS
VL: DIQMTQSPSSVSASVGDRVTITCRASQGIFSWLAWYQQKPGKAPKLLIYAASSLQSGVPSRFSGSGSGTDFTLTISSLQPEDFAIYYCQQANSVPITFGQGTRLEIKR
IC50 (pM) HEK-Blue IL-33 SEAP (mean) [4]: 15.9 pM

B4: IL13-0001 (antibody, human IgG1, kappa)
heavy: EVQLVESGGGLVQPGGSLRLSCAASGFTFSSYAMSWVRQAPGKGLEWVASISSGDTTYYPDSVKGRFTISRDNAKNSLYLQMNSLRAEDTAVYYCARNEGYYFGLTLWGQGTLVTVSSASTKGPSVFPLAPSSKSTSGGTAALGCLVKDYFPEPVTVSWNSGALTSGVHTFPAVLQSSGLYSLSSVVTVPSSSLGTQTYICNVNHKPSNTKVDKKVEPKSCDKTHTCPPCPAPEAAGAPSVFLFPPKPKDTLMISRTPEVTCVVVDVSHEDPEVKFNWYVDGVEVHNAKTKPREEQYNSTYRVVSVLTVLHQDWLNGKEYKCKVSNKALPAPIEKTISKAKGQPREPQVYTLPPSREEMTKNQVSLTCLVKGFYPSDIAVEWESNGQPENNYKTTPPVLDSDGSFFLYSKLTVDKSRWQQGNVFSCSVMHEALHNHYTQKSLSLSPGK
light: DIQMTQSPSSLSASVGDRVTITCKASESVDHFGWSLVHWYQQKPGKAPKLLIYRASNLESGVPSRFSGSGSGTDFTLTISSLQPEDFATYYCQQSNEDPWTFGGGTKVEIKRTVAAPSVFIFPPSDEQLKSGTASVVCLLNNFYPREAKVQWKVDNALQSGNSQESVTEQDSKDSTYSLSSTLTLSKADYEKHKVYACEVTHQGLSSPVTKSFNRGEC
IC50 (median), Monocyte CD23 expression [5]: 0.0101 nM | IC50 (median), STAT6 phosphorylation in HT-29 cells [5]: 0.104 nM

The remaining lines, values ahead:

IC50 [nM] versus reduced human IL-33 (R&D), IC50 (AVE) [1]: 0.011 nM | IC50 [nM] versus reduced human IL-33 (R&D), IC50 (AVE) [2]: 0.018 nM | Kd [3]: 0.00066 nM
B1: IL33-0352 (Clinical Benchmark) (antibody, INN chains, looked up, V domains shown)
VH: B2 VH
VL: DIQMTQSPSSVSASVGDRVTITCRASQGIFSWLAWYQQKPGKAPKLLIYAASSLQSGVPSRFSGSGSGTDFTLTISSLQPEDFAIYYCQQANSVPITFGQGTRLEIK
modifications: IgG1 effector-null

IC50 (pM) HEK-Blue IL-33 SEAP (mean) [4]: 56.4 pM
B3: IL33-310 (antibody, from a related filing, V domains shown)
VH: EVQLVESGGGLVQPGGSLRLSCAASGFTFSSFSMSWVRQAPGKGLEWVATISGGKTFTDYVDSVKGRFTISRDDSKNTLYLQMNSLRAEDTAVYYCTRANYGNWFFEVWGQGTLVTVSS
VL: EIVLTQSPATLSLSPGERATLSCRASESVAKYGLSLLNWFQQKPGQPPRLLIFAASNRGSGIPARFSGSGSGTDFTLTISSLEPEDFAVYYCQQSKEVPFTFGQGTKVEIKR
